The source of these data is US20120207760A1.

What all share (settings): remark: other sources report otherwise
Test [1] deals with T1, recombinant homotrimeric HA, A/swine/Ontario/01911-2/99 H4N6 (Influenza A virus A/swine/Ontario/01911-2/99 (H4N6)). Description: trimeric HA microarray, transfection set 3.
Test [2] has as its target recombinant homotrimeric HA, A/Egypt/3300-NAMRU3/08 H5N1 (Influenza A virus A/Egypt/3300-NAMRU3/08 (H5N1)). Description: trimeric HA microarray, transfection set 3.
Test [3] deals with T2, recombinant homotrimeric HA, A/chicken/Vietnam/NCVD-016/08 H5N1 (Influenza A virus A/chicken/Vietnam/NCVD-016/08 (H5N1)). The test can be described thus: trimeric HA microarray, transfection set 3.
Test [4] addresses recombinant homotrimeric HA, A/California/4/09 H1N1 (Influenza A virus A/California/4/09 (H1N1)). Description: trimeric HA microarray, transfection set 3.
Test [5] concerns the target T3, recombinant homotrimeric HA, A/Indonesia/5/05 H5N1 (Influenza A virus A/Indonesia/5/05 (H5N1)). The test can be described thus: trimeric HA microarray, transfection set 3.
Test [6] addresses recombinant homotrimeric HA, A/Hong Kong/2108/03 H9N2 (Influenza A virus A/Hong Kong/2108/03 (H9N2)). Description: trimeric HA microarray, transfection set 3.
The target of test [7] is T4, recombinant homotrimeric HA, A/Solomon Islands/3/06 H1N1 (Influenza A virus A/Solomon Islands/3/06 (H1N1)). Description: trimeric HA microarray, transfection set 3.
The target of test [8] is T5, recombinant homotrimeric HA, A/South Carolina/1/18 H1N1 (Influenza A virus A/South Carolina/1/18 (H1N1)). Description: trimeric HA microarray, transfection set 3.
Test [9] has as its target T6, recombinant homotrimeric HA, A/Vietnam/1203/04 H5N1 (Influenza A virus A/Vietnam/1203/04 (H5N1)). Description: trimeric HA microarray, transfection set 3.
The target of test [10] is T7, recombinant homotrimeric HA, A/common magpie/Hong Kong/5052/07 H5N1 (Influenza A virus A/common magpie/Hong Kong/5052/07 (H5N1)). The test can be described thus: trimeric HA microarray, transfection set 3.
The target of test [11] is recombinant homotrimeric HA, A/Japan/305/57 H2N2 (Influenza A virus A/Japan/305/57 (H2N2)). Description: trimeric HA microarray, transfection set 3.
Test [12] addresses T8, recombinant homotrimeric HA, A/Wisconsin/67/05 H3N2 (Influenza A virus A/Wisconsin/67/05 (H3N2)). The test can be described thus: trimeric HA microarray, transfection set 5.
Test [13] deals with recombinant soluble homotrimeric HA of A/Hong Kong/2108/03 - H9N2 (Influenza A virus A/HK/2108/2003 (H9N2)). Description: micro-array; captured IgG, V5-tagged trimeric HA.
For test [14], the target named is T8, recombinant homotrimeric HA, …. Description: trimeric HA microarray, transfection set 4.
Test [15] has as its target recombinant homotrimeric HA, A/duck/Yangzhou/02/05 H8N4 (Influenza A virus A/duck/Yangzhou/02/2005 (H8N4)). The test can be described thus: trimeric HA microarray, transfection set 1.
Test [16] concerns the target T8, recombinant homotrimeric HA, …. The test can be described thus: trimeric HA microarray, transfection set 1.
Test [17] has as its target recombinant homotrimeric HA, A/Anhui/1/05 H5N1 (Influenza A virus A/Anhui/1/05 (H5N1)). The test can be described thus: trimeric HA microarray, transfection set 1.
In test [18] the target is recombinant homotrimeric HA, A/Netherlands/219/03 H7N7 (Influenza A virus A/Netherlands/219/03 (H7N7)). The test can be described thus: trimeric HA microarray, transfection set 1.
For test [19], the target named is T1, recombinant homotrimeric HA, …. The test can be described thus: trimeric HA microarray, transfection set 2.
For test [20], the target named is T2, recombinant homotrimeric HA, …. The test can be described thus: trimeric HA microarray, transfection set 2.
The target of test [21] is T3, recombinant homotrimeric HA, …. Description: trimeric HA microarray, transfection set 2.
In test [22] the target is T4, recombinant homotrimeric HA, A/Solomon …. The test can be described thus: trimeric HA microarray, transfection set 2.
The target of test [23] is T5, recombinant homotrimeric HA, A/South …. Description: trimeric HA microarray, transfection set 2.
Test [24] deals with T6, recombinant homotrimeric HA, …. Description: trimeric HA microarray, transfection set 2.
In test [25] the target is T7, recombinant homotrimeric HA, A/common …. The test can be described thus: trimeric HA microarray, transfection set 2.
The target of test [26] is recombinant soluble homotrimeric HA of A/Hong Kong/2108/03 (H9N2) (Influenza A virus A/Hong Kong/2108/03 (H9N2)). The test can be described thus: microarray, control antibody, trimeric HA.
The target of test [27] is recombinant homotrimeric HA, A/Hong Kong/1073/99 H9N2 (Influenza A virus A/Hong Kong/1073/99 (H9N2)). The test can be described thus: trimeric HA microarray, transfection set 1.
Test [28] has as its target recombinant homotrimeric HA, A/northern shoveler/California/HKWF115/07 (Influenza A virus A/northern shoveler/California/HKWF115/2007 (H6N1)). The test can be described thus: trimeric HA microarray, transfection set 1.

B1: TCN-504 (3251_K17) (antibody, V domains shown)
VH: QVQLQESGPGLVKPSETLSLTCAVSGVSISNIDFYWGWIRQPPGKGLEWIGNIYYTGITFYNPSLSSRVAISIDTSKNQFSLTLTSVTAADTAMYYCARHYGDSEAINDAFDIWGQGTMLTVSS
VL: EIVMTQSPATLSVSPGERATLSCRASQSVGNSLAWYQQRPGQAPRLLIYGASTRATGIPPRFSGSGSGTEFTLTISSLQTEDFAVYYCQQYINWRPLSFGGGTKVEIK
Consider B1, for which the Trimeric HA Binding RLU amounted to 34500 RLU in test [1]; 18000 RLU in [2]; 10300 RLU in test [3]; 18600 RLU in test [4]; 18600 RLU in [5]; 36 RLU in [6]. Also, the Trimeric HA Binding RLU in [7] was found to be 32700 RLU; in test [8], 27600 RLU; in test [9], 13300 RLU; in test [10], 17800 RLU; in test [11] it was 36000 RLU; in test [12] it was 38100 RLU. For the same molecule, the Trimeric HA Binding RLU worked out at 20600 RLU in [14]; 28900 RLU in [15]; 14300 RLU in [16]; 29000 RLU in test [17]; 23800 RLU in test [18]; 32500 RLU in test [19]. Further, the Trimeric HA Binding RLU amounted to 27300 RLU in test [20]; 19700 RLU in test [21]; 31400 RLU in [22]; 24700 RLU in test [23]; 15000 RLU in test [24]; 16800 RLU in [25]. For the same molecule, the Trimeric HA Binding: RLU in test [13] was 7 RLU; in [26], 454 RLU.

B2: TCN-523 (5248_A17) (antibody, V domains shown)
VH: QVQLVQSGAEVKKPGSSVKVSCKASGGSFSNYAFSWVRQAPGQGLEWMGGTIPLLGTTNYAQKFQGRVTISADQFTSTAYMELGSLRSEDTAVYYCTRRKMTTAFDSWGQGTLVTVSS
VL: QPVLTQPPSASASLGASVTLTCTLSSAYSNYKVDWYQQRPGKGPRFVMRVGTGGIVGSKGDGIPDRFSVLGSGLNRYLTIKNIQEEDESDYHCGADHGSGSNFVSPYVFGGGTKLTVL
Turning to B2, the Trimeric HA Binding RLU came out at 1640 RLU in test [1]; 29100 RLU in [2]; 18900 RLU in test [3]; 19400 RLU in test [4]; 22000 RLU in test [5]; 51 RLU in test [6]. Moreover, the Trimeric HA Binding RLU in [7] turned out to be 11000 RLU; in test [8], 23700 RLU; in [9] it was 22100 RLU; in test [10] it was 640 RLU; in [11] it was 4550 RLU; in test [27] it was 21700 RLU. The Trimeric HA Binding RLU in test [28] was 9050 RLU; in test [19], 82 RLU; in [20], 17600 RLU; in test [21], 24500 RLU; in test [22], 3270 RLU; in test [23] it was 25500 RLU. In addition, the figures for the Trimeric HA Binding RLU in test [24] and in test [25] were 26200 RLU and 7210 RLU, respectively.
